B1: Ubiquitin-like modifier-activating enzyme ATG7 (Saccharomyces cerevisiae), P38862 (parent)
chain: MSSERVLSYAPAFKSFLDTSFFQELSRLKLDVLKLDSTCQPLTVNLDLHNIPKSADQVPLFLTNRSFEKHNNKRTNEVPLQGSIFNFNVLDEFKNLDKQLFLHQRALECWEDGIKDINKCVSFVIISFADLKKYRFYYWLGVPCFQRPSSTVLHVRPEPSLKGLFSKCQKWFDVNYSKWVCILDADDEIVNYDKCIIRKTKVLAIRDTSTMENVPSALTKNFLSVLQYDVPDLIDFKLLIIRQNEGSFALNATFASIDPQSSSSNPDMKVSGWERNVQGKLAPRVVDLSSLLDPLKIADQSVDLNLKLMKWRILPDLNLDIIKNTKVLLLGAGTLGCYVSRALIAWGVRKITFVDNGTVSYSNPVRQALYNFEDCGKPKAELAAASLKRIFPLMDATGVKLSIPMIGHKLVNEEAQHKDFDRLRALIKEHDIIFLLVDSRESRWLPSLLSNIENKTVINAALGFDSYLVMRHGNRDEQSSKQLGCYFCHDVVAPTDSLTDRTLDQMCTVTRPGVAMMASSLAVELMTSLLQTKYSGSETTVLGDIPHQIRGFLHNFSILKLETPAYEHCPACSPKVIEAFTDLGWEFVKKALEHPLYLEEISGLSVIKQEVERLGNDVFEWEDDESDEIA
partner: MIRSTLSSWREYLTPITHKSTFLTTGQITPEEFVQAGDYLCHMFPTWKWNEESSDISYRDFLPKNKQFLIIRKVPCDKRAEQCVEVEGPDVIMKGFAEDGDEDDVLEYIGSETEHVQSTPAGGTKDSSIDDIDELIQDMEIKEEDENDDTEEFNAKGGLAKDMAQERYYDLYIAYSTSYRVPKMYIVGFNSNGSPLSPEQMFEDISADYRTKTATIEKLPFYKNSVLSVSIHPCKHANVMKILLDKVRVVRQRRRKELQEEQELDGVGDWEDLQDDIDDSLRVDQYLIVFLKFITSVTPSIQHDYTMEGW
B2: Autophagy-related protein 3 (Saccharomyces cerevisiae), P40344 (parent)
chain: B1 partner
partner: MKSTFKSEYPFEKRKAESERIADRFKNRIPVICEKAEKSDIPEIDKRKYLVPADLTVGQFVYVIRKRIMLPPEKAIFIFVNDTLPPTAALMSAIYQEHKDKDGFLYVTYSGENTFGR
B3: Ubiquitin-like modifier-activating enzyme ATG7 (Saccharomyces cerevisiae), P38862 (parent)
chain: B1 chain
partner: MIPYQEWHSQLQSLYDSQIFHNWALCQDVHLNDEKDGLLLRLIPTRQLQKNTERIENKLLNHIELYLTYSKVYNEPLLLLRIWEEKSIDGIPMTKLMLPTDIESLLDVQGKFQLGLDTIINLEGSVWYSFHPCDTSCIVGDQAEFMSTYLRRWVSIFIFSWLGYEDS

Variants of: B1
Conditions: with atg3_yeast ATG3, P40344

Variant | effect of a mutation on the interaction
V285A | decreasing interaction strength
F16A;F61A | decreasing interaction strength
P283D | decreasing interaction strength
K14A;F16A;D18A | decreasing interaction strength
C507A | disrupting interaction strength

Variants of: B2
Conditions: with atg8_yeast ATG8, P38182

Variant | effect of a mutation on the interaction
MIRSTLSSWREYLTPITHKSTFLTTGQITPEEFVQAGDYLCHMFPTWKWNEESSDISYRDFLPKNKQFLIIAAVPCDKRAEQCVEVEGPDVIMKGFAEDGDEDDVLEYIGSETEHVQSTPAGGTKDSSIDDIDELIQDMEIKEEDENDDTEEFNAKGGLAKDMAQERAYDLYIAYSTSYRVPKMYIVGFNSNGSPLSPEQMFEDISADYRTKTATIEKLPFYKNSVLSVSIHPCKHANVMKILLDKVRVVRQRRRKELQEEQELDGVGDWEDLQDDIDDSLRVDQYLIVFLKFITSVTPSIQHDYTMEGW [R72A;K73A;Y168A] | disrupting interaction strength

Variants of: B3
Conditions: with atg10_yeast ATG10, Q07879

Variant | effect of a mutation on the interaction
Y137A | decreasing interaction strength
V285D | disrupting interaction strength
C507A | disrupting interaction strength

From IntAct's records for PubMed 23142976
